Laboratory results: patent publication US12325865B2, “Methods for increasing efficiency of gene editing in cells” (President and Fellows of Harvard College, priority 2017, dated 2025)

Tested on: PFFF3 cells
Assay: Treatment of Cas9/gRNA-modified PFFF3 cells during multiplex PERV pol genetic modification
Assay type: cell-based, porcine
Details: FIG. 2
Procedure: Stable expression of Cas9 and the three sgRNAs was achieved by integrating a piggyBac transposon carrying these elements into the PFFF3 genome. The PFFF3 cell line was established expressing a Piggybac-Cas9/3gRNAs construct. Cas9 and […] were carried in the same vector. Cas9 expression was induced by addition of doxycycline.
Methods described herein where cells are treated with PFTα and/or bFGF mitigate the stress from multiplex DNA damage and support clonal expansion of 100% PERV-free cells. Such DNA damage decreases targeting efficiency of the PFFF3 population over time and results in the inability to obtain 100% PERV-free PFFF3 clonal cell lines. Methods described herein are directed to inhibiting senescence and/or apoptosis pathways with small-molecule drugs so as to increase the targeting efficiency of the PFFF3 population and enhance viability of the highly edited clones. […] (See FIG. 1). […] (See FIG. 2). […] The distribution of the targeting efficiencies of single cell clones treated with PFTα and bFGF was approximately bimodal, and 100% PERV-free PFFF3 clonal cell lines were isolated. The eradication of pol activity was validated by RNA-seq with confirmation that all pol transcripts had been mutated.

B1: SV40 large T antigen: SV40 large T antigen, treatment also increasing targeting efficiency (protein, UniProt P03070 1-708, looked up)
Large T antigen: MDKVLNREESLQLMDLLGLERSAWGNIPLMRKAYLKKCKEFHPDKGGDEEKMKKMNTLYKKMEDGVKYAHQPDFGGFWDATEIPTYGTDEWEQWWNAFNEENLFCSEEMPSSDDEATADSQHSTPPKKKRKVEDPKDFPSELLSFLSHAVFSNRTLACFAIYTTKEKAALLYKKIMEKYSVTFISRHNSYNHNILFFLTPHRHRVSAINNYAQKLCTFSFLICKGVNKEYLMYSALTRDPFSVIEESLPGGLKEHDFNPEEAEETKQVSWKLVTEYAMETKCDDVLLLLGMYLEFQYSFEMCLKCIKKEQPSHYKYHEKHYANAAIFADSKNQKTICQQAVDTVLAKKRVDSLQLTREQMLTNRFNDLLDRMDIMFGSTGSADIEEWMAGVAWLHCLLPKMDSVVYDFLKCMVYNIPKKRYWLFKGPIDSGKTTLAAALLELCGGKALNVNLPLDRLNFELGVAIDQFLVVFEDVKGTGGESRDLPSGQGINNLDNLRDYLDGSVKVNLEKKHLNKRTQIFPPGIVTMNEYSVPKTLQARFVKQIDFRPKDYLKHCLERSEFLLEKRIIQSGIALLLMLIWYRPVAEFAQSIQSRIVEWKERLDKEFSLSVYQKMKFNVAMGIGVLDWLRNSDDDDEDSQENADKNEDGGEKNMEDSGHETGIDSQSQGSFQAPQSSQSVHDHNQPYHICRGFTCFKKPPTPPPEPET
How did the “average targeting efficiency of the resulting PFFF3 population” value turn out when B1 was run?
Its value is “increased average targeting efficiency”.
